Earlier results on one substance are cited in US20070032474A1, “Use of a compound of formula 1 for making a pharmaceutical composition” (priority 2003, published 2007).

The data set addresses PKBbeta (Homo sapiens, UniProt P31751). Conditions: background, reference (5); read-out: AC50 (activation of PKBbeta).

Sequence of PKBbeta (P31751 146-460 limits assumed, species assumed): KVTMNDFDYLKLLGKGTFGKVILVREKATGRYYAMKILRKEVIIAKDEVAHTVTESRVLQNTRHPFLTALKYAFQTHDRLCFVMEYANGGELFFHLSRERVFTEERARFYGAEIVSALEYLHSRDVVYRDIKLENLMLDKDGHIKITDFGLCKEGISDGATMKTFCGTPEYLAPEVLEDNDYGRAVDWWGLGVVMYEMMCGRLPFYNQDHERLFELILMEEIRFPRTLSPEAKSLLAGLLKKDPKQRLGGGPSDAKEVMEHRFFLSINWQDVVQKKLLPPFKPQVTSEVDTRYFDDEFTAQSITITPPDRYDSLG

Turning to “polypeptide NH2-REPRILSEEEQEMFRDFDYIADW-COOH comprising a hydrophobic motif; activates AGC kinases (H-REPRILSEEEQEMFRDFDYIADW-OH) [PIFtide]”, the AC50 (as a rule, the concentration giving half of the maximal activity seen) is 5 µM.
